Data from PMC5490006 (Nature Communications, 2017).

Tests used:
Mcm6 = biological target: T1, Mcm6 (budding yeast, UniProt P53091 1-1017); test: pull-down; Cdt1 FLAG held on M2 anti-FLAG agarose, Mcm6 fl or ΔC in solution; 10 μg of each protein, buffer B, 60 min at 4 °C; eluted with FLAG peptide; Coomassie; conditions: both partners purified
T1 construct: Mcm6, subunit of the budding yeast MCM (Mcm2-7), expressed as an individual subunit; called Mcm6 fl and the full-length protein; also called Mcm6 fl; full-length Mcm6; source: E. coli, purified
T1 sequence (P53091 whole entry): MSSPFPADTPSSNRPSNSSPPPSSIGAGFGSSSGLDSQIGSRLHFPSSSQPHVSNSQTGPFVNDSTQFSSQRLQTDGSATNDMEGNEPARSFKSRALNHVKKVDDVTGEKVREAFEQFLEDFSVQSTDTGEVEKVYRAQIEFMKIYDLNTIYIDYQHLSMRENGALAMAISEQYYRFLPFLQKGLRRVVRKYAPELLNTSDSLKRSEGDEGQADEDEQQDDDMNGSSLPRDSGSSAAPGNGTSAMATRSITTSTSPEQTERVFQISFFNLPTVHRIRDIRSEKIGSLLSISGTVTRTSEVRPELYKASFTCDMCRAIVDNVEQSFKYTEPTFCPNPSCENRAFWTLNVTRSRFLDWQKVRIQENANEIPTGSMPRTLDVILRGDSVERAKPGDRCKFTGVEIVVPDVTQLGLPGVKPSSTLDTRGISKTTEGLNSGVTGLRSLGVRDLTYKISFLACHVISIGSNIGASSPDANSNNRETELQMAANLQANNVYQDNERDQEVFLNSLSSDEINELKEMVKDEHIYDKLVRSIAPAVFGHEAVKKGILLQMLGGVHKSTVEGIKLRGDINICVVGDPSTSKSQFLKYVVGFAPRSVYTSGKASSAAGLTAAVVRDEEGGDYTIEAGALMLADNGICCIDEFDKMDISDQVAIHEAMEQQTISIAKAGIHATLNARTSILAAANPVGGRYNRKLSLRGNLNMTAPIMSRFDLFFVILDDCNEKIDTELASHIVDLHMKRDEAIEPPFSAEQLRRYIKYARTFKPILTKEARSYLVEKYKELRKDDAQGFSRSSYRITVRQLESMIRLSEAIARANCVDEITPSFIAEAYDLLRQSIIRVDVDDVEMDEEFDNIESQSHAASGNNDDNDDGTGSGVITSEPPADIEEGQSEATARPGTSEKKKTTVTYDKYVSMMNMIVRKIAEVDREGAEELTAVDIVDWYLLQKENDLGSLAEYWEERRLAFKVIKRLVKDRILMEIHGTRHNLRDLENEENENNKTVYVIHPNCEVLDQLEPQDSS

[1] = biological target: T2, Mcm6 within purified Cdt1–MCM complexes (budding yeast, UniProt P53091 1-1017); test: cross-linking; MCM-Cdt1 FLAG complex (200 μg) crosslinked with 20, 50 and 100 μM BS3; denatured with SDS; denaturing anti-FLAG immunoprecipitation; silver staining, bands identified by immunoblotting and mass spectrometry; conditions: both partners purified
T2 construct: Mcm6, yeast MCM subunit, as part of the Cdt1-MCM complex; source: purified Cdt1-MCM complex
T2 sequence (P53091 whole entry, one chain of several): as the sequence (P53091 whole entry) above

B1: Cdt1 FLAG (natural protein, S. cerevisiae, UniProt P47112 1-604, looked up)
chain: MSGTANSRRKEVLRVPVIDLNRVSDEEQLLPVVRAILLQHDTFLLKNYANKAVLDALLAGLTTKDLPDTSQGFDANFTGTLPLEDDVWLEQYIFDTDPQLRFDRKCRNESLCSIYSRLFKLGLFFAQLCVKSVVSSAELQDCISTSHYATKLTRYFNDNGSTHDGADAGATVLPTGDDFQYLFERDYVTFLPTGVLTIFPCAKAIRYKPSTMATTDNSWVSIDEPDCLLFHTGTLLARWSQGMHTTSPLQIDPRANIVSLTIWPPLTTPISSKGEGTIANHLLEQQIKAFPKVAQQYYPRELSILRLQDAMKFVKELFTVCETVLSLNALSRSTGVPPELHVLLPQISSMMKRKIVQDDILKLLTIWSDAYVVELNSRGELTMNLPKRDNLTTLTNKSRTLAFVERAESWYQQVIASKDEIMTDVPAFKINKRRSSSNSKTVLSSKVQTKSSNANALNNSRYLANSKENFMYKEKMPDSQANLMDRLRERERRSAALLSQRQKRYQQFLAMKMTQVFDILFSLTRGQPYTETYLSSLIVDSLQDSNNPIGTKEASEILAGLQGILPMDISVHQVDGGLKVYRWNSLDKNRFSKLLQIHKSKQQD
notes: Cdt1, S. cerevisiae, FLAG-tagged; also called FLAG-tagged Cdt1; source: purified; alone for the pull-downs, within the MCM-Cdt1 FLAG complex for the crosslinking
binding result (Mcm6): binds | binding result [1]: binds
